This is an account of results in patent US20250236683A1 (PHARMA FOODS INTERNATIONAL, published 2025).

The assay concerns the target T1, human PAD2 protein (human, UniProt Q9Y2J8 1-665).
T1 construct: also called Peptidylarginine deiminase 2; Peptidyl arginine deiminase type-2
Put plainly: SPR (Biacore 8K), antibody captured on Protein A chip, human PAD2 as analyte, single-cycle, 1:1 model. The method, then: To evaluate the binding affinity of each anti-PAD2 antibody for human PAD2 protein, the dissociation constant (KD) was measured using a surface plasmon resonance system Biacore 8K (Cytiva). Series S Sensor Chip Protein A (Cytiva) was used as the sensor chip. HBS-EP+ buffer was used as the running buffer. The test antibody was prepared at 0.8 μg/mL by using the running buffer to make a ligand solution. The ligand solution was added to the flow cell at a flow rate of 10 μL/min for 60 seconds, and the flow cell without the ligand solution was used as a reference cell. The running buffer was used to prepare human PAD2 protein from several hundred pM to several tens of nM to make each analyte solution. The running buffer was also used as a blank solution. The blank solution or analyte solution was added at a flow rate of 30 μL/min for 120 seconds by using the single-cycle method, and the dissociation time was set to 1200 seconds. The sensorgram of the reference cell was subtracted from the sensorgram of the flow cell with the ligand when the blank solution or analyte solution was added. In addition, the sensorgram when the blank solution was added was subtracted from the sensorgram when the analyte solution was added, and then used for analysis. Biacore™ Insight Evaluation Software (Cytiva) was used to calculate binding parameters while using the 1:1 binding model.

T1 sequence (Q9Y2J8 whole entry): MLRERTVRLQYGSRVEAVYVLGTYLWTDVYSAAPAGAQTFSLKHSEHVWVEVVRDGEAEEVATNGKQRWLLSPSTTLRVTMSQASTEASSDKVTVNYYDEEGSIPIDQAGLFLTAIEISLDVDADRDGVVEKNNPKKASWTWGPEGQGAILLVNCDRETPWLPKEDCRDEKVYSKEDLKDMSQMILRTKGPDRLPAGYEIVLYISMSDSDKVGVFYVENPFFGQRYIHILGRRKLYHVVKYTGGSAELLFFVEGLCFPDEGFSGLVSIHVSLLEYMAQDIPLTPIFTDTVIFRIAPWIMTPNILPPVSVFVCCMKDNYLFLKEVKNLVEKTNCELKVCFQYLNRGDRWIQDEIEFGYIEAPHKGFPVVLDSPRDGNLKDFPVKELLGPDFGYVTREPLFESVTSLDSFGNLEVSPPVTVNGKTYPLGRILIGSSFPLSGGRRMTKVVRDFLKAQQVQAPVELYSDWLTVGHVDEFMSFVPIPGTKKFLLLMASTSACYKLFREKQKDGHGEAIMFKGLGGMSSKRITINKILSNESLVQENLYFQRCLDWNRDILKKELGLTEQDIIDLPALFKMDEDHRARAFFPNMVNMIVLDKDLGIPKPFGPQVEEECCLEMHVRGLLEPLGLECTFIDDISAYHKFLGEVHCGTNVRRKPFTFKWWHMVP

B1: PK1-16 (antibody, human IgG1, lambda, V domains shown)
VH: AVTLDESGGGLQTPGGGLSLVCKASGFTFRSYAMYWVRQAPGKGLEWLAGISSSGRYTGYAPAVKGRATISRDNGQSTVRLQLSNLRAEDAGTYYCAKDVYDSWTYANRIDAWGHGTEVIVSS
VL: ALTQPSSVSANPGETVKITCSGGGRRGYYGWYQQKSPGSAPVTVIYNNDERPSNIPSRFSGFKSGSTATLTITGVQAEDEAVYYCGSGDTTTDSGIFGAGTTLTVLG
notes: Chicken/human chimeric IgG1 expressed in 293 cells; also called anti-PAD2 antibody
On to B1, for which the binding result is on record as “binds”.

B2: CK1-10 (antibody, human IgG1, lambda, V domains shown)
VH: AVTLDESGGGLQTPGRALSLVCKASGFTFSDYGMGWMRQAPGKGLEWVGAISNRGSHTYYGAAVKGRATISRDNGQSTVRLQLNNLRAEDTGTYYCAKDAGTCISSYGFSCVSAASIDAWGHGTEVIVSS
VL: ALTQPSSVSANLGGTVKITCSGGSGSYGGSYYYGWYQQKAPGSAPVTLIYDNTNRPSNIPSRFSGSKSGSTATLTITGVQADDEAVYFCGSIDSISDADIFGAGTTLTVLG
notes: as for B1
On to B2, for which the binding result is recorded as “binds”.
